Assay [1] addresses human hippocampal Y2 receptor (clone CG-13) (human) (UniProt P49146). As to the kind of experiment: 125I-PYY displacement, COS-7 membranes, Ki from IC50.
Assay [2] has the same target. Described as above. The source holds these as a separate data set.
In the next assay the target is T1, human Y4 receptor (human, UniProt P50391 1-375).
T1 construct: whole, on cells; transiently expressed in COS-7 cells; membranes used
The assay is described as above.

Assay [3] has as its target T2, human Y1 receptor (human, UniProt P25929 1-384).
T2 construct: whole, on cells; transiently expressed in COS-7 cells; membranes used; also called Y1 gene
T2 sequence (looked up): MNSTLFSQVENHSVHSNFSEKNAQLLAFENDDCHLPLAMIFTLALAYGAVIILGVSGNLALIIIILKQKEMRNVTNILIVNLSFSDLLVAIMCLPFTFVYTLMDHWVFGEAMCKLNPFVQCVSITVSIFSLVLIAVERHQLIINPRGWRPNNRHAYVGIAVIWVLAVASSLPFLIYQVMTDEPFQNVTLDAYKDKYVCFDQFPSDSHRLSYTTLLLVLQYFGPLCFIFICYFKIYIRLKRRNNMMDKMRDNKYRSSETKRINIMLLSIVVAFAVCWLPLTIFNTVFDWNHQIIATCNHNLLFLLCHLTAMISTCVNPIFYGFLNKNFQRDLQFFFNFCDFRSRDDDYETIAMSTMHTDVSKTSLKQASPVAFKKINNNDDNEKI
The assay is described as above.

Assay [4] concerns the target rat Y2a receptor (encoded by rs5a) (rat). Described as above.
Assay [5] has as its target human hippocampal Y2 receptor (clone CG-13) (human) (UniProt P49146). As to the kind of experiment: cell-based or functional assay.
The subject of the next assay is Y1 receptor. Put plainly: Whole cell 125I-PYY binding, COS-7 cells transfected with the Y1 gene. To be noted: 100 fold excess of cold peptide. Further details: species or system human. The protocol: DNA from pools of ≈5000 independent clones was transfected into COS-7 cells by a modification of the DEAE-dextran procedure (17). COS-7 cells were grown in Dulbecco's Modified Eagle Medium (DMEM) supplemented with 10% fetal calf serum, 100 U/mL of penicillin, 100 μg/mL of streptomycin, 2 mM L-glutamine (DMEM-C) at 37° C. in 5% CO2. The cells were seeded one day before transfection at a density of 30,000 cells/cm^2 in 6 well plates (Becton Dickinson, Lincoln Park, N.J.). On the next day, cells were washed twice with Phosphate Buffer Saline (PBS), 400 μl of transfection cocktail was added containing 1/10 of the DNA from each pool and DEAE-dextran (500 μg/mL) in PBS. After a 30 min. incubation at 37° C., 1.6 mL of chloroquine (80 μM in DMEM-C) was added and the cells incubated a further 2.5 hours at 37° C. The media was aspirated from each well and 1 mL of 10% DMSO in DMEM-C added. After 2.5 min. incubation at room temperature, the media was aspirated, each well washed once with 1 mL PBS and the cells incubated 24 hours in DMEM-C. […]
Since both Y1 and Y2 receptor subtypes are expressed in the hippocampus (2), we analyzed the DNA of positive pools by PCR with Y1 specific primers. […]

In assay [6] the target is T3, Y2-like receptor population expressed by human SK-N-Be(2) neuroblastoma cells (human).
T3 chain: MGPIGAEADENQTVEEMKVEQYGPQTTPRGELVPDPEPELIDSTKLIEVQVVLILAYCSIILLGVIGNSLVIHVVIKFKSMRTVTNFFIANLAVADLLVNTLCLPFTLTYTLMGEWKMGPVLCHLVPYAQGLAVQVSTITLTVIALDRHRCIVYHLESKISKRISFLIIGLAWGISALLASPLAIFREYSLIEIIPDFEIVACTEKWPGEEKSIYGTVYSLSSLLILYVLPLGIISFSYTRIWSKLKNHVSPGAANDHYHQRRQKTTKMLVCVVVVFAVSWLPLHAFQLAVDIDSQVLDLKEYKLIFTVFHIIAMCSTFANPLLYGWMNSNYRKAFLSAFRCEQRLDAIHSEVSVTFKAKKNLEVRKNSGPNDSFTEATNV
As to the kind of experiment: 125I-PYY displacement, SK-N-Be(2) membranes, Ki from IC50.

The target in assay [7] is T4, human hippocampal Y2 receptor (clone CG-13) (human, UniProt P49146 1-381).
T4 construct: 381 amino acids; also called CG-13 receptor; human Y2
T4 sequence: T3 chain
Put plainly: 125I-PYY displacement, COS-7 membranes, Ki from IC50.

Assay [8] has as its target T4, human hippocampal Y2 receptor (clone …). The description is as above. The source holds these as a separate data set.
Assay [9] concerns the target T2, human Y1 receptor. The assay is described as above. This is another data set of the same source.
The target of assay [10] is T5, rat Y2a receptor (encoded by rs5a) (rat).
T5 chain: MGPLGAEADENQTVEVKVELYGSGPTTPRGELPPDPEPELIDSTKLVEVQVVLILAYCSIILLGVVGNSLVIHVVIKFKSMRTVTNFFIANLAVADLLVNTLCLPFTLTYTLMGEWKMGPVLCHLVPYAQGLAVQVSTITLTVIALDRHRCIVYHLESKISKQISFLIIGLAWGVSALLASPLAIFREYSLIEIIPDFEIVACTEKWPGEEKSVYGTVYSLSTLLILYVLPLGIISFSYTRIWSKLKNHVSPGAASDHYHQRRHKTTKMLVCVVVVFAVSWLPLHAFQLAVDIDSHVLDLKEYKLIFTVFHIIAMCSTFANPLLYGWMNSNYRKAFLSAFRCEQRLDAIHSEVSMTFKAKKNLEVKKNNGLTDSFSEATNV
The assay is described as above.

Assay [11] concerns the target T4, human hippocampal Y2 receptor (clone …). Described as above. This is another data set of the same source.
Assay [12] has the same target. Put plainly: 125I-PYY displacement binding assay (Table 9, binding column).
The target is the same in assay [13]. Put plainly: cell-based or functional assay.
Assay [14] deals with T2, human Y1 receptor. Put plainly: 125I-PYY displacement, COS-7 membranes, Ki from IC50. This is another data set of the same source.

Where two headings read alike, the source gives them in different places. Bridges are numbered along the chain shown (N, C = ends). Where no end group is shown, it is not given here. [ ]: non-standard residue; d: D form. Aoc = NCCCCCCCC(=O)O

The values below come from US6420532B1, “Method of obtaining compositions comprising Y2 specific compounds” (Synaptic Pharmaceutical Corporation, priority 1994, dated 2002).

T1 sequence (P50391 whole entry): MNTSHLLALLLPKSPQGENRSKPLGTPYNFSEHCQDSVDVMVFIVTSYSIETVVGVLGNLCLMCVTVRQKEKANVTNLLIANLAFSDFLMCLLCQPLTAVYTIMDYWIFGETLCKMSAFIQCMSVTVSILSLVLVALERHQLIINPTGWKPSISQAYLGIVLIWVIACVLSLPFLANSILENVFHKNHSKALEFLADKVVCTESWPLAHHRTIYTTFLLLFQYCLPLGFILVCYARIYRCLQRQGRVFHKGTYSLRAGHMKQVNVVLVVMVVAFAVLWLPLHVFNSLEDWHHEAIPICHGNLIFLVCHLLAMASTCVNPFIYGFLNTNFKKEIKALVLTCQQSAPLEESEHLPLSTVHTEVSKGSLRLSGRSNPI

For orientation: Ki means a dissociation constant, usually derived from enzyme kinetics or from competition with a known ligand. Low values mean a stronger hold on the target, high ones a looser hold on the target. “human NPY free acid (from UniProt P01303 29-64) (peptide)”: the inhibition constant (Ki) in assay [1] was above 1000 nM; in assay [2], above 300 nM.
Consider PP, salmon (peptide), for which the inhibition constant Ki came out at 3.2 nM with human Y4 receptor, 0.2 nM in the assay with human Y1 receptor [3] and 0.17 nM in [4]. The EC50, inhibition of forskolin-stimulated cAMP accumulation, stably transfected 293 cells in assay [5] came out at 0.07 nM.
For “[Leu^31,Pro^34]NPY: analog of NPY modified at residues 31 and 34, species not stated”, the “inhibition of binding of 125I-PYY” value in the assay on Y1 receptor was “totally inhibited”.
As to PP, avian (peptide), the inhibition constant Ki in the assay with human Y4 receptor is 7 nM; in assay [1], above 1000 nM; in the assay with human Y1 receptor [3], 400 nM.

B1: porcine NPY13-36 (peptide, UniProt P01304 22-45, looked up)
peptide: PAEDLARYYSALRHYINLITRQRY-NH2
notes: range 13-36; also called NPY13-36, porcine
In the case of B1, the inhibition constant (Ki) turned out to be 38 nM in the assay with human Y4 receptor and 1.8 nM in assay [6].
Regarding APLEPMYPGDYATHEQRAQYETQLRRYINTLTRPRY-NH2 (peptide, UniProt P06303 30-65, looked up, mature; also called rat PP) [PP, rat], the Ki in assay [7] is above 1000 nM; in assay [8], above 1000 nM; with human Y4 receptor, 0.18 nM; in the assay with human Y1 receptor [9] it was 460 nM.

B2: porcine PYY13-36 (peptide, UniProt P68005 13-36, looked up)
peptide: SPEELSRYYASLRHYLNLVTRQRY-NH2
notes: range 13-36; also called PYY13-36, porcine
With B2, the inhibitory constant (Ki) in assay [10] and in [11] was 1.5 nM each time.
As to APLEPEYPGDNATPEQMAQYAAELRRYINMLTRPRY-NH2 (peptide, UniProt P01302 30-65, looked up, mature; also called bovine PP) [PP, bovine], the Ki is above 825 nM in assay [7], 830 nM in assay [8], 0.05 nM with human Y4 receptor and 240 nM with human Y1 receptor [9].

B3: porcine NPY22-36 (peptide, UniProt P01304 31-45, looked up)
peptide: SALRHYINLITRQRY-NH2
notes: range 22-36; also called NPY22-36, porcine
Regarding B3, the Ki in assay [12] came out at 18 nM; in assay [8], 18 nM; in assay [6], 3.2 nM; in assay [11] it was 4.6 nM; with human Y1 receptor [14], 170 nM. Besides, the “EC50, inhibition of forskolin-stimulated cAMP accumulation, stably transfected 293 cells” value (“EC50, inhibition” for short) in assay [13] was 2.3 nM.

B4: porcine NPY26-36 (peptide, UniProt P01304 35-45, looked up)
peptide: HYINLITRQRY-NH2
notes: range 26-36; also called NPY26-36, porcine
Consider B4, for which the inhibitory constant (Ki) in assay [7] is 380 nM; in assay [8], 380 nM; with human Y1 receptor [9], above 1000 nM; in assay [6], 70 nM; in [11] it was 210 nM.

B5: porcine NPY20-36 (peptide, UniProt P01304 29-45, looked up)
peptide: YYSALRHYINLITRQRY-NH2
notes: range 20-36; also called NPY20-36, porcine
For the molecule B5, the figures for the Ki with human Y4 receptor, with human Y1 receptor [9] and with human Y1 receptor [14] were 120 nM, 63 nM and 62 nM, respectively.

B6: C2-NPY, porcine (peptide)
chain: YCSK[Aoc]RHCINLITRQRY-NH2
modifications: disulfide 2-8; N-terminus assumed
SMILES: CC[C@H](C)[C@H](NC(=O)[C@@H]1CSSC[C@H](NC(=O)[C@@H](N)Cc2ccc(O)cc2)C(=O)N[C@@H](CO)C(=O)N[C@@H](CCCCN)C(=O)NCCCCCCCC(=O)N[C@@H](CCCNC(=N)N)C(=O)N[C@@H](Cc2c[nH]cn2)C(=O)N1)C(=O)N[C@@H](CC(N)=O)C(=O)N[C@@H](CC(C)C)C(=O)N[C@H](C(=O)N[C@H](C(=O)N[C@@H](CCCNC(=N)N)C(=O)N[C@@H](CCC(N)=O)C(=O)N[C@@H](CCCNC(=N)N)C(=O)N[C@@H](Cc1ccc(O)cc1)C(N)=O)[C@@H](C)O)[C@@H](C)CC
As to B6, the Ki in [12] is 3.5 nM; in assay [8] it was 3.5 nM; in the assay with human Y4 receptor it was 120 nM; with human Y1 receptor [9], 73 nM. In assay [13], the “EC50, inhibition” value turned out to be 0.14 nM.
Regarding YPSKPDNPGEDAPAEDMARYYSAL-NH2 (peptide, UniProt P01303 29-52, looked up, range 1-24) [NPY1-24 amide, human], the Ki in assay [8] was above 1000 nM.

B7: porcine NPY16-36 (peptide, UniProt P01304 25-45, looked up)
peptide: DLARYYSALRHYINLITRQRY-NH2
notes: range 16-36; also called NPY16-36, porcine
Take B7: the Ki in [12] came out at 3.6 nM; in [8] it was 3.6 nM; in the assay with human Y4 receptor it was 54 nM; in assay [6] it was 5 nM; in [11] it was 3.8 nM. Further, the “EC50, inhibition” value in assay [13] was determined as 1.8 nM.
Turning to APSEPHHPGDQATQDQLAQYYSDLYQYITFVTRPRF-NH2 (also called frog PP) [PP, frog], the Ki in assay [8] was above 1000 nM; in the assay with human Y4 receptor, 61 nM; with human Y1 receptor [9], 96 nM.
